For assay [1], the target named is full-length HIV-1 WT integrase (HIV-1). Briefly: cross-linking + SEC; covalent IN oligomers made by chemical cross-linking and separated by size-exclusion chromatography, as previously described [10]; dimers and tetramers recovered.
Assay [2] has the same target. Briefly: cross-linking; IN (5 pmol, 0.5 uM) with the 5'-radiolabelled 38-bp PalA/PalB duplex (1 pmol, 0.1 uM; HIV-1 LTR-LTR junction) and AHDAP 300 uM, 0.05% NP40, 10 mM DTT, 20 mM HEPES pH 7.5, 37 C in the dark, 0 to 60 min; SDS-PAGE and autoradiography; IN oligomers seen bound to DNA.

Where “and” joins values, the source holds several entries; their conditions need not be identical. Equal values may be shown once.

For the substance full-length HIV-1 WT integrase (enzyme), the stoichiometry N in assay [1] is 2 and 4; in assay [2], 2 and 4.

What is called stoichiometry N is the number of molecules, sites or subunits per partner or assembly.

The record behind these values is publication PMC1905944.
